This note sets out measurements from US20210371527A1 (IMAGINAB, published 2021).

The test has as its target T1, human CD4 on HPB-ALL cells (human, UniProt P01730 26-458).
T1 construct: The assay used HPB-ALL cells; no signal peptide limits are stated; also called HPB-ALL cells (human T cell leukemia, DSMZ ACC 483); HPC-ALL
Kind of test: flow cytometry on HPB-ALL cells.

B1: deferoxamine conjugated humanized IAB41-1 minibody (other)
chain: EIVLTQSPATLSLSPGERATLSCSARSSVSYLYWYQQKPGQAPRLLIYDTSNLASGIPDRFSGSGSGTDFTLTISRLEPEDAAVYYCQQWSDYPLTFGGGTKLEIKGSTSGGGSGGGSGGGGSSQVQLVQSGAEVKKPGASVKVSCKASGYSFANYWMHWVRQAPGQRLEWIGALYPGNVDTTYNQKFQGRVTITRDTSASTAYMELSSLRSEDTAVYYCTRMGTTLEAPLDYWGQGTLVTVSSEPKSSDKTHTCPPCPPCGGGSSGGGSGGQPREPQVYTLPPSREEMTKNQVSLTCLVKGFYPSDIAVEWESNGQPENNYKTTPPVLDSDGSFFLYSKLTVDKSRWQQGNVFSCSVMHEALHNHYTQKSLSLSPG
modifications: deferoxamine (Df) chelator conjugated; sites of conjugation not stated
notes: also called Df-Hu-IAB41-1
Regarding B1, the binding result was “binds”.

B2: humanized IAB41-1 minibody (other)
chain: EIVLTQSPATLSLSPGERATLSCSARSSVSYLYWYQQKPGQAPRLLIYDTSNLASGIPDRFSGSGSGTDFTLTISRLEPEDAAVYYCQQWSDYPLTFGGGTKLEIKGSTSGGGSGGGSGGGGSSQVQLVQSGAEVKKPGASVKVSCKASGYSFANYWMHWVRQAPGQRLEWIGALYPGNVDTTYNQKFQGRVTITRDTSASTAYMELSSLRSEDTAVYYCTRMGTTLEAPLDYWGQGTLVTVSSEPKSSDKTHTCPPCPPCGGGSSGGGSGGQPREPQVYTLPPSREEMTKNQVSLTCLVKGFYPSDIAVEWESNGQPENNYKTTPPVLDSDGSFFLYSKLTVDKSRWQQGNVFSCSVMHEALHNHYTQKSLSLSPG
notes: also called Hu-IAB41-1; Construct 41-1
For B2, the binding result is recorded as “binds”.
